Test: soluble on expression in E. coli; label from the status in PepcDB or PDB records

| Sequence | soluble on expression in E. coli |
| --- | --- |
| MKLHEAKLLLNDPTFSIDSITYQELEMDSDYVDVHEDISYSKDNVDLHSHTFFEILFCQSGSLQYMVGNTRYQLVKNSIVCIPPGVSHCPLYLEQLSEPYRRTVMWISNKIYHQYMNLLNNDPIEKSSCLLPQNVFLLSGNILYQVEELYEKMLNIPPDFSGAELYKIGLSAQIVTLFHQFLNSHEINPLKPEKTILLDEIIHFIENHLSEELSAKRIAAHFLVSESSINQLFSKQISLSLYRYITQRRLIEAKNLISSQTPLKKLPELCGFSDYSVFYKAFTKQYGISPKEYKNRIFKMQQ | soluble |
| MSLGEAEARVVLNMNTGWAFHRGEVESGGQPGLDDSGWIAAIIPHIMQLEKKHCGGDIIYDGVGWYRRTFRVPSQYKDKQIKISFEGVMNACEVYLNGQKISAHRGGYVGFVTDITTRINWDRDNLLAVRVSAEYDPLTPPGKPQAGMDFYYYSGIYRDVEMVISDPLHITHALEEEEVAGGGIFVTYPVVGKEKAVTHVKAHVRNEGKRKRKAQLRTQLIDKSGKIVACQLTPFRLSAGEAIHLEQNLEIVHPSLWHPYDPNLYTLQNEIVENGKVVDCHTESIGIRTIAYTRDGGFYINGESLYLRGANRHQAFAHIGDAAANSMQERDVIDLKRGGCNAVRAAHYPQDPAFLAACDKYGLLVVECIPGWQYFKNDSTFISRLYEVGKQMIRRDRNHPSVILWETALNESRYPAEIARNLYAIAHIEYPGDQMYTAGDYFGHADRVDCFDVFYKQVSRFPKDGDVMSNYPEDQIAVKPLFCREWGDGVGEKPRVSLMENEEEQLKQCRGRFLQLNGHGYFDWCMLDANPRMGGHFLWSYNDYARGAEQETMFCGIVDINRYPKFSYYMMQSMRDKEISQEGHHHHHH | soluble |
| MNAERCEFIAGNSLIEVIPSISDDRPIHLISGDIGPFEAGVPCRIPVWTAILMKRKHNCKVVAPQWMDVDELKKILTSETESQGLAKLPDHFFEISHMLVRDAREDIFEVEAVKSLVQDIYDRRDAKLRSSAIEFLRQNQTCHAQLDNVQLIEASSARATLEACRQMGAVVRNKHESTPL | not soluble |
| MAATQEEIVAGLAEIVNEIAGIPVEDVKLDKSFTDDLDVDSLSMVEVVVAAEERFDVKIPDDDVKNLKTVGDATKYILDHQA | soluble |
| MAHHHHHHMLSTACRAPVRGRAYCGCNRGLVSFSFYSTFAGDRRGAGGDETSGANSGGSGDSGETPKASKATVEERRRMAKSWENAFFGRVHYEPGMHDRYQAALDAEVEEHATLDEKDRCDRLPNWPDDEETPLHEFLQLSDAAKKRYIVRRLTMGERRINYAPYYGSLLMMQHLNLGELMISDAEHLVRESGWMTECVASKIEAVRECASKIKFEYDLD | not soluble |
| GSSHHHHHHSSGRENLYFQGHMPKRRKSVTGEIVLITGAGHGIGRLTAYEFAKLKSKLVLWDINKHGLEETAAKCKGLGAKVHTFVVDCSNREDIYSSAKKVKAEIGDVSILVNNAGVVYTSDLFATQDPQIEKTFEVNVLAHFWTTKAFLPAMTKNNHGHIVTVASAAGHVSVPFLLAYCSSKFAAVGFHKTLTDELAALQITGVKTTCLCPNFVNTGFIKNPSTSLGPTLEPEEVVNRLMHGILTEQKMIFIPSSIAFLTTLERILPEGS | soluble |
| MNHVKKHVLWKDEYFERYYRLNPELVQKRLDKIYQAEDDLMVLISTQLFCFLQANGTLYFDGCYKTGKADNSLLCTNLALWSIELACDHFDIREERGHTTKFSEQGESWLTLFACNQFSLVPYCYPAIQRGFQSGVLKEIVPFYREQKLGILAMEIMARERGDTINWEAMQVRVDPVYLDFCQNILLSSDDELVRTGLITLCDKHLEWTDFHNSDKHCCLTGYEIQRQDLLLWPFEYQAVKNWRARQGLSTPMIEHPLMNSPMTTANCPDFSQWQRPEWFNPLVDFLAQRRPELAFLRHLFI | not soluble |
| MKFLNVLIVVEDIEKSKKFYYDVLGLKVICDFGENVVLEGNISLQEKKLWLEFINKSDSEVKFNGNDAELYFEEDNFDTFVERLSTMKDIDYVHLAIEHRWGQRAIRFYDLDGHIIEVGETMSSVCRRFLDSGLSIDEVAKRMDVTVEYIESVLELEHHHHHH | soluble |
| MPRIAIPDDLTEILTVVEFPLPNAPEIKIEIERLLQATGNSLSGKVTDDLVRSCQGLSMERIRRVLAKAIATHGELQPEDVDLVLEEKRQTIRQTQILDFYPATEQISDIGGLDNLKDWLLRRGGSFSERARQYGLPHPRGLLLEHHHHHH | not soluble |
| MATVNKQAIAAAFGRAAAHYEQHADLQRQSADALLAMLPQRKYTHVLDAGCGPGWMSRHWRERHAQVTALDLSPPMLVQARQKDAADHYLAGDIESLPLATATFDLAWSNLAVQWCGNLSTALRELYRVVRPKGVVAFTTLVQGSLPELHQAWQAVDERPHANRFLPPDEIEQSLNGVHYQHHIQPITLWFDDALSAMRSLKGIGATHLHEGRDPRILTRSQLQRLQLAWPQQQGRYPLTYHLFLGVIARE | not soluble |
| MASPLRFDGRVVLVTGAGGGLGRAYALAFAERGALVVVNDLGGDFKGVGKGSSAADKVVEEIRRRGGKAVANYDSVEAGEKLVKTALDTFGRIDVVVNNAGILRDRSFSRISDEDWDIIQRVHLRGSFQVTRAAWDHMKKQNYGRIIMTASASGIYGNFGQANYSAAKLGLLGLANTLVIEGRKNNIHCNTIAPNAGSRMTETVMPEDLVEALKPEYVAPLVLWLCHESCEENGGLFEVGAGWIGKLRWERTLGAIVRKRNQPMTPEAVRDNWVKICDFSNASKPKSIQESTGGIIEVLHKIDSEGISQNHTGQVASAD | soluble |
| KELKIILLTDMHVGSLLQKDFVDYIVEEVNQKEVDMVLIGGDLVDESIEKVKSFLLPLNNLKSTHGTFYVPGNHEYYHGIEPILSFLDTLNLTILGNECVHLGGINLCGVYDYFARKRQNFAPDIDKALKKRNESKPTILLAHQPKQIRSLKESHSVDLVLSGHTHAGQIFPFSLLVKLAQTYLHGLYKHSP | not soluble |
| MGSDKIHHHHHHMSDAMHTLLTASPLLDLHHPEIEALVARRDWLTLSPYDRIGAVYDFVRNEIAFGYNEGDELPASRVLADGIGQCNTKSTLLMALLRAVGIPCRFHGFTIDKPLQKGAITGLAYWLAPQRIIHSWVEVSLEGRWIALEGFILDAPYLASLQRRFPQARRFCGYGAATPDLSAPGVDWRGQDAYIQKEGIADDFGVFDSPDAFYARHGSNLSGVKRWLYERVIRHRMNRNVARVRASKW | not soluble |
| MGSDKIHHHHHHMDFTEYQEEIIEDVKSCLESLQVQPILFMGAGISQRYIKAPDWEGLLKQLAEICPLIKRHYGYYSQTKGDNKPLIASDFCDFYAEWAWDDGKDRYPETYFEGTTPKDIYIKHEIASILNELSNSVDFSNMEYTEEVQKLRKVKPHAIITTNYDDTLEKIFDNYQAIVGHNVVKVNYSSYGEIMKIHGSSHEVESIVITNEDYVDFYKRKKYISAKLLTYFAEHPLFFFGYSINDENIKAILSDIDEIIAPNNALIPNIYLVSFSKDCEATGSHQKELLIGVGENKSIRIKVIYANDFGWIFDALSSNTPEISVNPKLVRAFLARTYTFASESLVKQELPYDFEMFRDIAEHDDALAKMYGIAELNNGQALNASFPYTMSDLARILDMGSWHYVNQEFEKLRKLTDFNIKASDNNYHVFIKSGKSGVGKYSSEALDLLRKLINGEQFELNP | not soluble |
| MAAKHVLFSTDARQKMLSGVNLLANAVKVTLGPKGRHVVLNKSYGAPTITKDGVSVAKEIELADKFENMGAQMLKQVASKANDEAGDGTTTATVLAQALINEGMKAVAAGMNPMDLKRGIDKAVSAAVEKLHQLAKPCSDTQSITQVGAISANSDHAIGEIIAQAMEKVGRNGVITVEEGQALQNELSVVEGMQFDRGYLSPYFINQPKAGCVELENPYVLLVDKKISHIRELLPILESVAKASRSLLIIAEDVDGDALATLVVNSMRGIIKVAAVKAPGFGEQRKAMLEDIAALTAGRVISEEIGLELEKVTLDDLGSAKKVTINKDNTTIVDGAAEPSALQDRIAQIQHQLEHTTSQYDRDKLQQRIAKLSGGVAVIKIGAATEVEMKEKKDRVDDALHATRAAVEEGIVAGGGVALLKIANELSNLQGDNDDQNVGIRIALRAMEEPLRQIAINAGDEASVIANQVKTGDEHYGYNAATGQFGNMLEMGILDPAKVTRSALQFAASIAGLMITTEAMVSEVDKESAA | not soluble |
| RDIIQYIPARSSYGTPPFVPPGPSPYVGTGMQEYRKLRSTLDKSHSELKKNLKNETLKEVDELKSEAGLPGKAVSANDIRDEKSIVDALMDAKAKSLKAIEDRPANLYTASDFPQKSESMYQSQLLASRKFYGEFLDRHMSELAKAYSADIYKAQIAILKQTSQELENKARSLEAEAQRAAAEVEADYKARKANVEKKVQSELDQAGNALPQLTNPTPEQWLERATQLVTQAIANKKKLQTANNALIAKAPNALEKQKATYNADLLVDEIASLQARLDKLNAETARRKEIARQAAIRAANTYAMPANGSVVATAAGRGLIQVAQGAASLAQAISDAIAVLGRVLASAPSVMAVGFASLTYSSRTAEQWQDQTPDSVRYALGMDAAKLGLPPSVNLNAVAKASGTVDLPMRLTNEARGNTTTLSVVSTDGVSVPKAVPVRMAAYNATTGLYEVTVPSTTAEAPPLILTWTPASPPGNQNPSSTTPVVPKPVPVYEGATLTPVKATPETYPGVITLPEDLIIGFPADSGIKPIYVMFRDPRDVPGAATGKGQPVSGNWLGAASQGEGAPIPSQIADKLRGKTFKNWRDFREQFWIAVANDPELSKQFNPGSLAVMRDGGAPYVRESEQAGGRIKIEIHHKVRIADGGGVYNMGNLVAVTPKRHIEIHKGGK | not soluble |
| MGSDKIHHHHHHMKKYFPSSELIINEDGSVFHLHVKPEWLADKVILVGDPGRVALVASHFENKECEVESREFKTITGTYKGKRITVVSTGIGCDNIDIVMNELDALANINFETREEKEKFRQLELVRIGTCGGLQPNTPVGTFVCSQKSIGFDGLLNFYAGRNAVCDLPFERAFLNHMGWSGNMCAPAPYVIDASEELIDRIAKEDMVRGVTIAAGGFFGPQGRELRIPLADPKQNDKIEAFEYKGFKITNFEMESSALAGLSRLMGHKAMTVCMVIANRLIKEANTGYKNTIDTLIKTVLDRI | not soluble |
| MPLPTELARHLTEEKIAFVQRSGLRAEVLEPGYVRLRMPGAGNENHIGSMYAGALFTLAELPGGALFLTSFDSARFYPIVKEMTLRFRRPAKGDIRVEARLDAERIRQLETEAGERGKAEYSLELQLTDEQGEVVAESAALYQLRSHARP | soluble |
| MIVDFYFDFLSPFSYLANQRLSKLAQDYGLTIRYNAIDLARVKIAIGNVGPSNRDLKVKLDYLKVDLQRWAQLYGIPLVFPANYNSRRMNIGFYYSGAEAQAAAYVNVVFNAVWGEGIAPDLESLPALVSEKLGWDRSAFEHFLSSNAATERYDEQTHAAIERKVFGVPTMFLGDEMWWGNDRLFMLESAMGRLCRQNADLSS | soluble |
| MKEKSSVEVRLDKWLWAARFYKTRAMAREMIEGGKVHYNGQRSKPSKIVELNATLTLRQGNDERTVIVKAITEQRRPASEAVALYEETAESVEKREKMAQARKLNALTMPHPDRRPDKKERRDLLRFKHGDSE | not soluble |
| MGHHHHHHSHMPMYQVKPYHGGGAPLRVELPTCMYRLPNVHGRSYGPAPGAGHVQEESNLSLQALESRQDDILKRLYELKAAVDGLSKMIQTPDADLDVTNIIQADEPTTLTTNALDLNSVLGKDYGALKDIVINANPGSPPLSLLVLHRLLCEHFRVLSTVHTHSSVKSVPENLLKCFGEQNKKQPRQDYQLGFTLIWKNVPKTQMKFSIQTMCPIEGEGNIARFLFSLFGQKHNAVNATLIDSWVDIAIFQLKEGSSKEKAAVFRSMNSALGKSPWLAGNELTVADVVLWSVLQQIGGCSVTVPANVQRWMRSCENLAPFNTALKLLK | not soluble |

From the DeepSol protein solubility set
